In this experiment the target is T1, human GDF15 receptor (GFRAL) stably over-expressed on SK-N-AS cells (human, UniProt Q6UXV0 19-394).
T1 sequence (looked up): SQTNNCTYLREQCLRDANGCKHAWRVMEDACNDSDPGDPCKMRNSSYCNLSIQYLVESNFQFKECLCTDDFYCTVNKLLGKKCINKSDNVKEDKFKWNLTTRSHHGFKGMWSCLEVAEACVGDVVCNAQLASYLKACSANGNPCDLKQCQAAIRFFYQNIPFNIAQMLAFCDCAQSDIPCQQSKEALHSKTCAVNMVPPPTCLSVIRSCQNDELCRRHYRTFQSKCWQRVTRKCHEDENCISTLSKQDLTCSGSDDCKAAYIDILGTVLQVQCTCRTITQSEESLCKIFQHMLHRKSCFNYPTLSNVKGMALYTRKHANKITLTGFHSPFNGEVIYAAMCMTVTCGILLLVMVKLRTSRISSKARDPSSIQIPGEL
The experiment in a line: cell-based or functional assay.

B1: Native GDF15 (ligand, UniProt Q99988 197-308, looked up)
chain: ARNGDHCPLGPGRCCRLHTVRASLEDLGWADWVLSPREVQVTMCIGACPSQFRAANMHAQIKTSLHRLKPDTVPAPCCVPASYNPMVLIQKTDTGVSLQTYDDLLAKDCHCI
Take B1: the “EC50, cell-based pAKT (phospho-AKT Ser473) assay” value was found to be 0.153 nM.

The values above are taken from US20220315633A1 (Janssen / Centocor, published 2022).
